Assay [1] deals with hepatitis B virus surface antigen (HBsAg) (hepatitis B virus). As to the kind of experiment: SPR, Biacore 3000, HBsAg on CM5 chip, antibody as analyte, pH 7.4.
Assay [2] has the same target. Kind of assay: ELISA, commercial HBsAg plate, well held 30 min in PBS pH 6.0 after binding, GAH-HRP secondary antibody, OD(450/630).
Assay [3] has the same target. As to the kind of experiment: ELISA, commercial HBsAg plate, well held 30 min in PBS pH 7.4 after binding, GAH-HRP secondary antibody, OD(450/630).
For assay [4] the target is unchanged. As to the kind of experiment: ELISA on commercial HBsAg plate, pH 6.0.
Assay [5] shares this target. Kind of assay: ELISA on commercial HBsAg plate, pH 7.4.
Assay [6] shares this target. As to the kind of experiment: ELISA on commercial HBsAg plate, ratio of EC50 at pH 6.0 to pH 7.4.

B1: anti-HBV humanized antibody M1D (antibody, V domains shown)
VH: QVQLQESGPGLVKPSETLSLTCTVSGGSITSNFWSWIRQPPGKGLEWIGYISGSGTYTDYNPSLKSRVTISVDTSKNQFSLKLSSVTAADTAVYYCARSHDYGSNDYAFDFWGQGTTVTVSS
VL: DIQMTQSPSSLSASVGDRVTITCRATQDISSSLNWYQQKPGKAPKLLIYYANRLQSGVPSRFSGSGSGTDFTLTISSLQPEDFATYYCQQYHSLPLTFGGGTKVEIK
In turn, B1 yielded a dissociation constant (Kd) in assay [1] of 0.534 nM. In addition, the EC50 (read off the curve) in assay [2] and in assay [3] was 0.01 µg/mL each time.

B2: A42-23 (antibody, human IgG1, kappa, V domains shown)
VH: QVQLQESGPGLVKPSETLSLTCTVSGGSITHNFWSWIRQPPGKGLEWIGYISGYDTYTDYNPSLKSRVTISVDTSKNQFSLKLSSVTAADTAVYYCARSHDYGHHDYAFDFWGQGTTVTVSS
VL: DIQMTQSPSSLSASVGDRVTITCRATQDIHHSLNWYQQKPGKAPKLLIYYANRLQSGVPSRFSGSGSGTDFTLTISSLQPEDFATYYCQQYHYLPLTFGGGTKVEIKR
Turning to B2, the EC50 in assay [4] came to 0.345 µg/mL; in assay [5], 0.0127 µg/mL. In assay [6], the EC50(pH 6.0)/EC50(pH 7.4) was determined as 27.2.

The record behind these values is US20220235117A1.
